Paper PMC10819241
Where two headings read alike, the source gives them in different places.

Columns and labels:
[1] = target: CTB-DV1EDIII (after TEV cleavage of hRID-CTB-DV1EDIII) (not stated | dengue virus serotype 1 (DenKor-07 strain)) (UniProt P01556); assay: SEC
[2] = target: CTB-DV1EDIII (after TEV cleavage of hRID-CTB-DV1EDIII) (not stated | dengue virus serotype 1 (DenKor-07 strain)) (UniProt P01556); assay: SDS-PAGE without DTT and boiling (native SDS-PAGE)
[3] = target: CTB-DV1EDIII (after TEV cleavage of hRID-CTB-DV1EDIII) (not stated | dengue virus serotype 1 (DenKor-07 strain)) (UniProt P01556)

Measured: stoichiometry N

CTB-DV1EDIII (after TEV cleavage of hRID-CTB-DV1EDIII) (from UniProt P01556 22-124)
5: [1] | [2] | [3]
